Results as given in paper PMC5495134.

What was measured:
[1] = target: Mth1491 homotrimer with a cysteine introduced at position 92, modified with azo maleimide 3 (Methanobacterium thermoautotrophicum); assay: affinity chromatography on beta-cyclodextrin resin with LC-MS of fractions; Mth1491 modified to about 50% with azo maleimide 3, eluted from a column packed with resin 4 (beta-cyclodextrin on sepharose CL-4B); four peaks for the modification states of the trimer; isolated singly and doubly modified species repurified; trimer disassembles upon LC-MS
[2] = target: Mth1491 homotrimer with a cysteine introduced at position 92, tagged, azo-cleaved, AF-labelled and protected with Ellman's reagent (Methanobacterium thermoautotrophicum); assay: dynamic light scattering; average particle size before and after protection with Ellman's reagent (5.5 ± 0.3 nm to 7.4 ± 0.9 nm)

stoichiometry N [1] | stoichiometry N [2] | Substance
3 | – | Mth1491 homotrimer with a cysteine introduced at position 92, modified with azo maleimide 3 (natural protein)
– | 3 | Mth1491 homotrimer with a cysteine introduced at position 92, tagged, azo-cleaved, AF-labelled and protected with Ellman's reagent (natural protein)
